The values below come from US20250270301A1 (GEN2 NEUROSCIENCE, published 2025).

For test [1], the target named is monomeric P301S 2N4R tau, pHrodo-labelled (human, UniProt P10636 1-758, pHrodo Red maleimide label). Description: cell-based or functional assay.
For test [2], the target named is aggregated (oligomeric) P301S 2N4R tau, pHrodo-labelled (human, UniProt P10636 1-758, pHrodo Red maleimide label). The experiment in a line: cell-based or functional assay.
Test [3] concerns the target T1, full length recombinant human 2N4R tau (human, UniProt P10636 1-758).
T1 construct: bought from rPeptide; pHrodo Red maleimide-labelled where it stands in uptake assays; also called tau1-441; full length tau
Description: SPR SCK, IgG on Protein A, tau in flow. As to the method: 21.5 Assessment of antibody binding to tau (Biacore SCK analysis): Binding of anti-tau hIgG1 to full length recombinant 2N4R tau (Rpeptide; SEQ ID NO: 2) was assessed using the Biacore T200 (GE Healthcare, Chicago, IL, USA) running Biacore T200 Evaluation Software V2.0.1. hIgG1 were immobilised on a Protein A capture sensor chip in running buffer (HBS-EP+ buffer containing 1 mg/mL BSA) at 25° C., captured to ˜50 RU at 10 μL/min. For single-cycle kinetics experiments, recombinant 2N4R tau was flowed at concentrations ranging from 1.25 nM to 10 nM (2-fold dilutions) with an association time of 60 s and a dissociation time of 200 s. Curves were compared to a reference cell that was mock immobilized (no antibody present).

Test [4] deals with T1, full length recombinant human 2N4R tau. The experiment in a line: SPR MCK, IgG on Protein A, tau in flow. As to the method:
Slight variations in RMAX are considered likely to be due to differences in ligand capture and not reflective of significant variation in antibody binding characteristics.
22.2 Assessment of antibody binding to tau (Biacore MCK analysis): Binding of anti-tau hIgG1 to full length recombinant 2N4R tau (Rpeptide; SEQ ID NO: 2) was assessed using the Biacore T200 (GE Healthcare, Chicago, IL, USA) running Biacore T200 Evaluation Software V2.0.1. hIgG1 were immobilised on a Protein A capture sensor chip in running buffer (HBS-EP+ buffer containing 1 mg/mL BSA) at 25° C., captured to ˜50 RU at […]. For multi-cycle kinetics experiments, recombinant 2N4R tau was flowed at concentrations ranging from 0.39 nM to 12.5 nM in running buffer at 40 μL/min, with an association time of 60 s and a dissociation time of 200 s. Curves were compared to a reference cell that was mock immobilized (no antibody present).

For a further test, the target named is T2, Bovine serum albumin (bovine, UniProt P02769 25-607).
T2 construct: also called BSA
T2 sequence (P02769 25-607 limits assumed): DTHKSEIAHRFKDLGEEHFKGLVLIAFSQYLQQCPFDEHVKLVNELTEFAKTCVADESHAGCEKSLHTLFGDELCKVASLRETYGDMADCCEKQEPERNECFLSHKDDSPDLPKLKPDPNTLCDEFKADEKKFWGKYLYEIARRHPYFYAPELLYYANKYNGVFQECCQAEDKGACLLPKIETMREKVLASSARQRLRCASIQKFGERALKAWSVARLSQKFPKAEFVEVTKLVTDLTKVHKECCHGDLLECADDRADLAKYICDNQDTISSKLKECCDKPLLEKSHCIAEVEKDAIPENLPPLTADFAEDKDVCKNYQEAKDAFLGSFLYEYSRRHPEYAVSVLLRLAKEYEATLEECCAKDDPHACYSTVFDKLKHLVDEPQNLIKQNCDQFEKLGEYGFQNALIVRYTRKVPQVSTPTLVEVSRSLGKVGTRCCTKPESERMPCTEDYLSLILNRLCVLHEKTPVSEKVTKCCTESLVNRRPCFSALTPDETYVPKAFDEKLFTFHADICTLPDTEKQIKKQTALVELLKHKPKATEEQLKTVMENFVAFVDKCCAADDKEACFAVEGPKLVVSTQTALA
Description: ELISA on 1% BSA, HEK supernatant, anti-human IgG-HRP, n=1. As to the method:
FIG. 7. A panel of humanised anti-tau IgG bind to full length recombinant 2N4R tau in an ELISA format. Supernatants from HEK cells transiently transfected with each IgG clone were tested at 1:100 for binding to full length recombinant 2N4R tau (solid bars). […] Binding of anti-tau hIgG1 was detected using an HRP-conjugated anti-human secondary antibody and data are shown from a representative experiment (n=1 replicate).
Antigen was removed from wells and the plates were then blocked for 1 hour at RT with 5% dried milk in 1×TBS. Blocking solution was removed, HEK293 cell supernatant (1:100 in 1% BSA/1×TBS) was added to relevant wells, and plates were incubated for 1 hour at RT with gentle shaking. Plates were then washed four times with TBS/0.1% Tween (TBST). Goat anti-human IgG-HRP antibody (Thermo Fisher Scientific, Waltham, MA, USA), diluted 1:2000 in 5% milk/TBS, was added to each well and plates were incubated for 1 hour at RT with gentle shaking before being washed four times with TBST. 3,3′,5,5′-tetramethylbenzidine (TMB) ELISA solution was added to each well and plates were incubated for 15 mins at RT. An equal volume of 1 M sulfuric acid was added to each well and OD was measured at 450 nm.
(In an ELISA, binding on a coated surface is turned into a signal by an enzyme label.)

Substitutions are numbered along the chain they refer to.

T1 sequence (P10636 other isoform, or with tags, fused parts or gaps limits assumed): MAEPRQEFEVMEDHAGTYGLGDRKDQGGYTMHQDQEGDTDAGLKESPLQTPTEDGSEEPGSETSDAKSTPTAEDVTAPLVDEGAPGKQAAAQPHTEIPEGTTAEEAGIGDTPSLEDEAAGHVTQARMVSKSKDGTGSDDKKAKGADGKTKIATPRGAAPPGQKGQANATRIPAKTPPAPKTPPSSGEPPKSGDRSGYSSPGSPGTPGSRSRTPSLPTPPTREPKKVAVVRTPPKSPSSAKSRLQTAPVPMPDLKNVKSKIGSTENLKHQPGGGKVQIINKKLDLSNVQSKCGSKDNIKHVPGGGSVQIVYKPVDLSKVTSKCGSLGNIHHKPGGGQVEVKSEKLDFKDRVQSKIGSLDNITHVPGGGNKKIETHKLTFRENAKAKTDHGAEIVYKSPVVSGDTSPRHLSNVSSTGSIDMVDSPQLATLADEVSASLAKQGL
monomeric P301S 2N4R tau, pHrodo-labelled, sequence (P10636 other isoform, or with tags, fused parts or gaps P301S P301S): as the sequence (P10636 other isoform, or with tags, fused parts or gaps limits assumed) above, with P301S counted along it
aggregated (oligomeric) P301S 2N4R tau, pHrodo-labelled, sequence (P10636 other isoform, or with tags, fused parts or gaps P301S P301S): as the sequence (P10636 other isoform, or with tags, fused parts or gaps limits assumed) above, with P301S counted along it

B1: #44 VH3VK3 humanised hIgG1 (antibody, V domains shown)
VH: QVQLQESGPGLVKPSETLSLTCTVSGIDLSSYAMAWVRQAPGKGLEWIGCIDRRGGTFYASWVKGRFTISKTSTTVDLQMTSLTAEDTATYFCARDSGAFDPWGQGTLVTVSS
VL: DIQMTQSPSSLSASVGDRVTITCQASQSVYDNYLAWYQQKPGQPPKLLIHAASNLASGVPSRFKGSGSGTEFTLTISSLQPDDFATYYCLGEFSCTTTDCNVFGGGTKVEIK
notes: also called VH3Vκ3; Clone VH3VK3 (A)
One may read the Kd as the equilibrium constant for the complex coming apart. For orientation: koff means the rate constant with which the complex falls apart. What is called kon is the rate constant with which the complex forms. For B1, in test [1], the “increase of monomeric tau uptake into human iPSC-derived microglia” value turned out to be 16.1%, the “inhibition of monomeric tau uptake into human iPSC-derived astrocytes” value amounted to 85.2% and the “inhibition of monomeric tau uptake into human iPSC-derived neurons” value amounted to 48.4%. In addition, in test [2], the “increase of aggregated tau uptake into human iPSC-derived microglia” value amounted to 77.7%, the “inhibition of aggregated tau uptake into human iPSC-derived astrocytes” value was 46.4% and the “inhibition of aggregated tau uptake into human iPSC-derived neurons” value is 30.6%. Besides, in test [3], the Kd amounted to 7.71 nM, the “Relative KD (to VH0VK0)” value amounted to 2.01, the koff is 0.0341 s⁻¹ and the association rate constant (kon) turned out to be 4.43e+06 M⁻¹ s⁻¹. In addition, in test [4], the Kd was 5.7 nM, the “Relative KD (to VH0VK0)” value is 1.75, the koff was 0.0927 s⁻¹ and the association rate constant (kon) stood at 1.63e+07 M⁻¹ s⁻¹. Moreover, the binding result in the test with Bovine serum albumin is on record as “no binding (tested: supernatant 1:100)”.

B2: #44 VH1VK2 humanised hIgG1 (antibody, V domains shown)
VH: QSVQESGGGLVKPSETLSLTCTVSGIDLSSYAMAWVRQAPGKGLEWIGCIDRRGGTFYASWVKGRFTISKTSTTVDLKMTSLTAEDTATYFCARDSGAFDPWGQGTLVTVSS
VL: B1 VL with D1Q, Q3V
notes: also called VH1Vκ2
For B2, in test [3], the Kd was determined as 4.26 nM, the “Relative KD (to VH0VK0)” value came to 1.11, the koff came to 0.0232 s⁻¹ and the on-rate (kon) is 5.43e+06 M⁻¹ s⁻¹. Besides, the binding result with Bovine serum albumin is listed as “no binding (tested: supernatant 1:100)”.

B3: #44 VH5VK4 humanised hIgG1 (antibody, V domains shown)
VH: QVQLQESGPGLVKPSETLSLTCTVSGIDLSSYAMAWVRQAPGKGLEWIGCIDRRGGTFYASWVKGRFTISRDNSKNTLDLQMTSLTAEDTATYYCARDSGAFDPWGQGTLVTVSS
VL: B1 VL with K64S
notes: also called VH5Vκ4
Turning to B3, in test [3], the Kd worked out at 9.63 nM, the “Relative KD (to VH0VK0)” value was 2.51, the off-rate (koff) is 0.0684 s⁻¹ and the kon is 7.11e+06 M⁻¹ s⁻¹. In the test with Bovine serum albumin, the binding result is recorded as “no binding (tested: supernatant 1:100)”.

B4: #44 VH2VK4 humanised hIgG1 (antibody, V domains shown)
VH: B2 VH with G8P, K78Q
VL: B1 VL with K64S
notes: also called VH2Vκ4
B4: in test [3], the Kd was found to be 5.33 nM, the “Relative KD (to VH0VK0)” value was 1.39, the off-rate (koff) came to 0.0195 s⁻¹ and the kon worked out at 3.66e+06 M⁻¹ s⁻¹. Further, the binding result with Bovine serum albumin is “no binding (tested: supernatant 1:100)”.

B5: #44 VH4VK1 humanised hIgG1 (antibody, V domains shown)
VH: B3 VH with R71K, N73T, N76T, L78V, Y94F
VL: B1 VL with D1Q, Q3V, G58R, P81C, K108E, E110V
notes: also called VH4Vκ1
As for B5, in test [3], the equilibrium dissociation constant (Kd) turned out to be 6.81 nM, the “Relative KD (to VH0VK0)” value was found to be 1.78, the koff worked out at 0.03 s⁻¹ and the kon stood at 4.4e+06 M⁻¹ s⁻¹. Also, in the test with Bovine serum albumin, the binding result is listed as “no binding (tested: supernatant 1:100)”.

B6: #44 VH5VK3 humanised hIgG1 (antibody, V domains shown)
VH: B3 VH
VL: B1 VL
notes: also called VH5Vκ3
B6: in test [3], the dissociation constant (Kd) was found to be 14.2 nM, the “Relative KD (to VH0VK0)” value is 3.71, the off-rate (koff) worked out at 0.0406 s⁻¹ and the kon was found to be 2.86e+06 M⁻¹ s⁻¹. In the test with Bovine serum albumin, the binding result was “no binding (tested: supernatant 1:100)”.

B7: #44 VH2VK1 humanised hIgG1 (antibody, V domains shown)
VH: B2 VH with G8P, K78Q
VL: B1 VL with D1Q, Q3V, G58R, P81C, K108E, E110V
notes: also called VH2Vκ1
B7: in test [3], the Kd was found to be 7.94 nM, the “Relative KD (to VH0VK0)” value stood at 2.07, the koff is 0.021 s⁻¹ and the kon turned out to be 2.64e+06 M⁻¹ s⁻¹. Further, the binding result with Bovine serum albumin is on record as “no binding (tested: supernatant 1:100)”.

B8: #44 VH1VK4 humanised hIgG1 (antibody, V domains shown)
VH: B2 VH
VL: B1 VL with K64S
notes: also called VH1Vκ4
As for B8, in test [3], the dissociation constant (Kd) was determined as 4.15 nM, the “Relative KD (to VH0VK0)” value was found to be 1.08, the off-rate (koff) is 0.0208 s⁻¹ and the kon is 5.01e+06 M⁻¹ s⁻¹. Also, the binding result with Bovine serum albumin is “no binding (tested: supernatant 1:100)”.

B9: #44 VH2VK2 humanised hIgG1 (antibody, V domains shown)
VH: B2 VH with G8P, K78Q
VL: B1 VL with D1Q, Q3V
notes: also called VH2Vκ2
Regarding B9, in test [3], the Kd stood at 5 nM, the “Relative KD (to VH0VK0)” value turned out to be 1.31, the koff amounted to 0.0182 s⁻¹ and the kon came out at 3.63e+06 M⁻¹ s⁻¹. The binding result in the test with Bovine serum albumin is reported as “no binding (tested: supernatant 1:100)”.

B10: #44 VH1VK1 humanised hIgG1 (antibody, V domains shown)
VH: B2 VH
VL: B1 VL with D1Q, Q3V, G58R, P81C, K108E, E110V
notes: also called VH1Vκ1
Take B10: in test [3], the equilibrium dissociation constant (Kd) worked out at 3.16 nM, the “Relative KD (to VH0VK0)” value stood at 0.83, the koff was 0.0232 s⁻¹ and the association rate constant (kon) was 7.35e+06 M⁻¹ s⁻¹. Besides, the binding result with Bovine serum albumin was “no binding (tested: supernatant 1:100)”.

B11: #44 VH3VK4 humanised hIgG1 (antibody, V domains shown)
VH: B1 VH
VL: B1 VL with K64S
notes: also called VH3Vκ4; Clone VH3VK4 (B)
Regarding B11, in test [1], the “increase of monomeric tau uptake into human iPSC-derived microglia” value was 80.3%, the “inhibition of monomeric tau uptake into human iPSC-derived astrocytes” value is 87.6% and the “inhibition of monomeric tau uptake into human iPSC-derived neurons” value came to 43.1%. Besides, in test [2], the “increase of aggregated tau uptake into human iPSC-derived microglia” value is 83.9%, the “inhibition of aggregated tau uptake into human iPSC-derived astrocytes” value turned out to be 45% and the “inhibition of aggregated tau uptake into human iPSC-derived neurons” value was 33.3%. Further, in test [3], the Kd worked out at 7.02 nM, the “Relative KD (to VH0VK0)” value worked out at 1.83, the koff came out at 0.043 s⁻¹ and the kon turned out to be 6.12e+06 M⁻¹ s⁻¹. Also, in test [4], the Kd turned out to be 6.57 nM, the “Relative KD (to VH0VK0)” value was found to be 2.02, the dissociation rate constant (koff) turned out to be 0.0618 s⁻¹ and the kon was 9.4e+06 M⁻¹ s⁻¹. The binding result with Bovine serum albumin was “no binding (tested: supernatant 1:100)”.

B12: #44 VH1VK3 humanised hIgG1 (antibody, V domains shown)
VH: B2 VH
VL: B1 VL
notes: also called VH1Vκ3
As for B12, in test [3], the dissociation constant Kd was found to be 5 nM, the “Relative KD (to VH0VK0)” value was determined as 1.31, the off-rate constant (koff) amounted to 0.0129 s⁻¹ and the kon was determined as 2.58e+06 M⁻¹ s⁻¹. For the same molecule, the binding result with Bovine serum albumin was “no binding (tested: supernatant 1:100)”.

B13: #44 VH5VK2 humanised hIgG1 (antibody, V domains shown)
VH: B3 VH
VL: B1 VL with D1Q, Q3V
notes: also called VH5Vκ2
On to B13, for which, in test [3], the equilibrium dissociation constant (Kd) came to 12.6 nM and the “Relative KD (to VH0VK0)” value worked out at 3.29. Further, the binding result with Bovine serum albumin is “no binding (tested: supernatant 1:100)”.

B14: #44 VH5VK1 humanised hIgG1 (antibody, V domains shown)
VH: B3 VH
VL: B1 VL with D1Q, Q3V, G58R, P81C, K108E, E110V
notes: also called VH5Vκ1
On to B14, for which, in test [3], the Kd worked out at 8.31 nM, the “Relative KD (to VH0VK0)” value came out at 2.17, the koff stood at 0.187 s⁻¹ and the kon was found to be 2.25e+07 M⁻¹ s⁻¹. The binding result in the test with Bovine serum albumin is “no binding (tested: supernatant 1:100)”.

B15: #44 VH2VK3 humanised hIgG1 (antibody, V domains shown)
VH: B2 VH with G8P, K78Q
VL: B1 VL
notes: also called VH2Vκ3
With B15, in test [3], the Kd turned out to be 4.52 nM, the “Relative KD (to VH0VK0)” value amounted to 1.18, the dissociation rate constant (koff) stood at 0.0187 s⁻¹ and the kon was 4.14e+06 M⁻¹ s⁻¹. For the same molecule, the binding result in the test with Bovine serum albumin was “no binding (tested: supernatant 1:100)”.
